Experimental data published in patent US20230285583A1, “LIQUID FORMULATION OF LONG-ACTING CONJUGATE OF GLUCAGON, GLP-1, AND GIP TRIGONAL AGONIST” (HANMI PHARM, CO., LTD., priority 2020, published 2023).
Bridge positions count the residues as written; N and C are the ends. Square brackets hold non-standard residues; d marks the D form. Ends that are not written are not given here. * marks the point of attachment. Acetyl(2-(4-imidazolyl)) = O=C(Cc1c[nH]cn1)*; Aib = CC(C)(N)C(=O)O

How the values were obtained:
Assay in all cases: cell-based or functional assay
human GCG receptor = human GCG receptor (human, UniProt P47871 26-477)
human GIP receptor = target: T1, human GIP receptor (human, UniProt P48546 22-466)
T1 sequence (looked up): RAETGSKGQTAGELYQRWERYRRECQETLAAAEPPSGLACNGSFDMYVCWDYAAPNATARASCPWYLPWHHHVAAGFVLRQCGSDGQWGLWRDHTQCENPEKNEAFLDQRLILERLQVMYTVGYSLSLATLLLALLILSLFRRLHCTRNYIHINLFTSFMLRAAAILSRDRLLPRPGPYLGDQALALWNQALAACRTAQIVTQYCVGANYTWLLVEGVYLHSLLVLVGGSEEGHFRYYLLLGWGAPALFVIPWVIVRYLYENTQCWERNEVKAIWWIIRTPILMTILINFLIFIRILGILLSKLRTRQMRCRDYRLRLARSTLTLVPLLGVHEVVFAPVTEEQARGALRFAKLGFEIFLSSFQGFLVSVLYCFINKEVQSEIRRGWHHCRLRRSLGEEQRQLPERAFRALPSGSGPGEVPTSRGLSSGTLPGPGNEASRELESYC

human GLP-1 receptor = human GLP-1 receptor (human, UniProt P43220 24-463)

Chain of human GCG receptor (P47871 26-477): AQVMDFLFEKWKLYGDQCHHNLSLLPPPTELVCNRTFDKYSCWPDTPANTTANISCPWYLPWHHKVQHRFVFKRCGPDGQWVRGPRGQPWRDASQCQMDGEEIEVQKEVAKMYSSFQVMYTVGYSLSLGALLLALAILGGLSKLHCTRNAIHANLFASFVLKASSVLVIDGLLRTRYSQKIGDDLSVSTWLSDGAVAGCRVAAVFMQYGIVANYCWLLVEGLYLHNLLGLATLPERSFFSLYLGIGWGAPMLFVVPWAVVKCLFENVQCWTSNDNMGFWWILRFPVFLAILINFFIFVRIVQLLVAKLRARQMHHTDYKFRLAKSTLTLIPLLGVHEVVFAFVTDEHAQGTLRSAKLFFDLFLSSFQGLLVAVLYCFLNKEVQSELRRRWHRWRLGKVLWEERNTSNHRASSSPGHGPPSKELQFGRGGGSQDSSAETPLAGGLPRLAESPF

Binder	In Vitro Activity Compared to Native Peptide (%) vs. Glucagon (relative titer from cAMP EC50) (human GCG receptor) [%]	In Vitro Activity Compared to Native Peptide (%) vs. GIP (relative titer from cAMP EC50) (human GIP receptor) [%]	In Vitro Activity Compared to Native Peptide (%) vs. GLP-1 (relative titer from cAMP EC50) (human GLP-1 receptor) [%]
H[Aib]QGTFTSDYSKYLDEKACKEFVQWLLAQ (bridge 16-20; not fully specified (bridges)) [trigonal agonist of SEQ ID NO: 4]	2.2	2.4	135
Y[Aib]QGTFTSDYSKALDEKAAKDFVNWLLDHHPSSGQPPPSC (bridge 16-20; not fully specified (bridges)) [trigonal agonist of SEQ ID NO: 43]	14.9	57.7	20.9
H[Aib]QGTFTSDYSKYLDEKRQKEFVQWLLNTC (bridge 16-20; not fully specified (bridges)) [trigonal agonist of SEQ ID NO: 12]	2	0.1	14.4
[Acetyl(2-(4-imidazolyl))][Aib]EGTFTSDYSIAMDEIHQKDFVDWLLAEKC (bridge 16-20; not fully specified (bridges)) [trigonal agonist of SEQ ID NO: 38]	16.8	0.3	31.9
H[Aib]QGTFTSDYSKYLDEKACKDFVQWLLDGGPSSGAPPPS (lactam 16-20) [trigonal agonist of SEQ ID NO: 5]	1.7	8.8	151
H[Aib]QGTFTSDYSKYLDEKRAKEFVQWLLDHHPSSGQPPPSC (bridge 16-20; not fully specified (bridges)) [trigonal agonist of SEQ ID NO: 11]	50.5	2.7	67.4
[Acetyl(2-(4-imidazolyl))][Aib]QGTFTSDYSKYLDEKRQKEFVNWLLAQKC (bridge 16-20; not fully specified (bridges)) [trigonal agonist of SEQ ID NO: 39]	0.3	0.7	5.7
Y[Aib]QGTFTSDYSKALDEKAAKEFVNWLLDQHPSSGQPPPSC (bridge 16-20; not fully specified (bridges)) [trigonal agonist of SEQ ID NO: 45]	13.9	40.1	23.2
Y[Aib]QGTFTSDYSKYLDECRAKEFVQWLLDHHPSSGQPPPS (bridge 16-20; not fully specified (bridges)) [trigonal agonist of SEQ ID NO: 1]	267	22.7	17.8
H[Aib]QGTFTSDYSKYLDECRQKEFVQWLLNGGPSSGAPPPSG (bridge 16-20; not fully specified (bridges)) [trigonal agonist of SEQ ID NO: 8]	6.21	2.2	236
Y[Aib]QGTFTSDYSKYLDEKRAKEFVQWLLDCHPSSGQPPPS (bridge 16-20; not fully specified (bridges); ends not checked) [trigonal agonist of SEQ ID NO: 41]	62.8	2.6	10.5
H[Aib]QGTFTSDYSKYLDEKRQKEFVNWLLAQKC (bridge 16-20; not fully specified (bridges)) [trigonal agonist of SEQ ID NO: 6]	0.92	0.6	19.1
Y[Aib]QGTFTSDYSKALDEKAAKEFVNWLLDHHPSSGQPPPSC (bridge 16-20; not fully specified (bridges)) [trigonal agonist of SEQ ID NO: 42]	8.2	47.1	28.1
[Acetyl(2-(4-imidazolyl))][Aib]QGTFTSDYSKYLDEKRQKEFVNWLLAQC (bridge 16-20; not fully specified (bridges)) [trigonal agonist of SEQ ID NO: 37]	0.4	0.2	28.4
Y[Aib]QGTFTSDYSKALDEKAAKDFVNWLLDQHPSSGQPPPSC (bridge 16-20; not fully specified (bridges)) [trigonal agonist of SEQ ID NO: 46]	29.5	58	23.3
H[Aib]EGTFTSDYSIAMDEIHQKDFVNWLLAQKC (lactam 16-20) [trigonal agonist of SEQ ID NO: 34]	4.9	1.4	41.5
H[Aib]EGTFTSDYSIAMDEIHQKDFVDWLLAEKC (bridge 16-20; not fully specified (bridges)) [trigonal agonist of SEQ ID NO: 35]	0	0.1	8.1
Y[Aib]QGTFTSDYSKYLDEKRAKEFVQWLLDHHCSSGQPPPS (bridge 16-20; not fully specified (bridges)) [trigonal agonist of SEQ ID NO: 10]	88.4	3.7	12.6
Y[Aib]QGTFTSDYSKALDEKAAKEFVQWLLDQHPSSGQPPPSC (bridge 16-20; not fully specified (bridges)) [trigonal agonist of SEQ ID NO: 44]	12.7	118	42.2
{Acetyl(2-(4-imidazolyl))}-[Aib]EGTFTSDYSIAMDEIHQKDFVNWLLAQC (lactam 15-19) [trigonal agonist of SEQ ID NO: 36]	1.3	0.4	47.3
Y[Aib]QGTFTSDYSKYLDEKRAKEFVQWLLDHCPSSGQPPPS (bridge 16-20; not fully specified (bridges); ends not checked) [trigonal agonist of SEQ ID NO: 40]	195	5.2	34.4
Y[Aib]QGTFTSDYSKYLDEKRAKEFVQWLLDHHPSSGQPPPSC (lactam 16-20) [trigonal agonist of SEQ ID NO: 9]	206	7.8	33.9
H[Aib]QGTFTSDYSKYLCEKRQKEFVQWLLNGGPSSGAPPPSG (bridge 16-20; not fully specified (bridges)) [trigonal agonist of SEQ ID NO: 7]	0.39	0.2	37.4
